Measurements: publication PMC2796240

Test system: CCCCC(=O)Oc1ccc([N+](=O)[O-])cc1
Assay: purified protein
Details: pH 7.5, 14.5 mM Tris-HCl, 0.75% glycerol, 0.5% Triton X, 1.1 µM enzyme

Substance: F. solani cutinase (Fusarium vanettenii)
- Km: 1.48 ± 0.56 µM
- kcat/Km: 10200 ± 6670 M⁻¹ s⁻¹
